Values of other authors in patent US5866683A, “Isoelectric point markers for isoelectric focusing with fluorescence detection” (Laboratory of Molecular Biophotonics, priority 1995, dated 1999).
“And” between values parts separate entries of the source, which are not always exact repeats. Equal values may be shown once.

B1: amyloglucosidase (protein, UniProt P69328 25-640, looked up)
Glucoamylase: ATLDSWLSNEATVARTAILNNIGADGAWVSGADSGIVVASPSTDNPDYFYTWTRDSGLVLKTLVDLFRNGDTSLLSTIENYISAQAIVQGISNPSGDLSSGAGLGEPKFNVDETAYTGSWGRPQRDGPALRATAMIGFGQWLLDNGYTSTATDIVWPLVRNDLSYVAQYWNQTGYDLWEEVNGSSFFTIAVQHRALVEGSAFATAVGSSCSWCDSQAPEILCYLQSFWTGSFILANFDSSRSGKDANTLLGSIHTFDPEAACDDSTFQPCSPRALANHKEVVDSFRSIYTLNDGLSDSEAVAVGRYPEDTYYNGNPWFLCTLAAAEQLYDALYQWDKQGSLEVTDVSLDFFKALYSDAATGTYSSSSSTYSSIVDAVKTFADGFVSIVETHAASNGSMSEQYDKSDGEQLSARDLTWSYAALLTANNRRNSVVPASWGETSASSVPGTCAATSAIGTYSSVTVTSWPSIVATGGTTTTATPTGSGSVTSTSKTTATASKTSTSTSSTSCTTPTAVAVTFDLTATTTYGENIYLVGSISQLGDWETSDGIALSADKYTSSDPLWYVTVTLPAGESFEYKFIRIESDDSVEWESDPNREYTVPQACGTSTATVTDTWR
B2: trypsinogen (protein, UniProt P00760 18-246, looked up)
pro-form: VDDDDKIVGGYTCGANTVPYQVSLNSGYHFCGGSLINSQWVVSAAHCYKSGIQVRLGEDNINVVEGNEQFISASKSIVHPSYNSNTLNNDIMLIKLKSAASLNSRVASISLPTSCASAGTQCLISGWGNTKSSGTSYPDVLKCLKAPILSDSSCKSAYPGQITSNMFCAGYLEGGKDSCQGDSGGPVVCSGKLQGIVSWGSGCAQKNKPGVYTKVCNYVSWIKQTIASN
modifications: pro-form
notes: conventional protein pI marker
B3: lentilectin (protein, UniProt P02870 31-210; P02870 218-269, looked up)
Lectin beta chain: TETTSFSITKFSPDQKNLIFQGDGYTTKGKLTLTKAVKSTVGRALYSTPIHIWDRDTGNVANFVTSFTFVIDAPSSYNVADEFTFFIAPVDTKPQTGGGYLGVFNSKEYDKTSQTVAVEFDTFYNAAWDPSNKERHIGIDVNSIKSVNTKSWNLQNGERANVVIAFNAATNVLTVTLTYP
Lectin alpha chain: VTSYTLNEVVPLKDVVPEWVRIGFSATTGAEFAAHEVHSWSFHSELGGTSSS
notes: conventional protein pI marker, three pI's
B4: equine myoglobin (protein, UniProt P68082 2-154, looked up)
Myoglobin: GLSDGEWQQVLNVWGKVEADIAGHGQEVLIRLFTGHPETLEKFDKFKHLKTEAEMKASEDLKKHGTVVLTALGGILKKKGHHEAELKPLAQSHATKHKIPIKYLEFISDAIIHVLHSKHPGDFGADAQGAMTKALELFRNDIAAKYKELGFQG
notes: as for B2

Details: unlabeled protein

Q: Which “pI (known) of conventional protein pI marker” value (shortened to “pI (known)”) does the source give for B1 here?
A: 3.50

Q: For B2, which “pI (known)” value is on record?
A: 9.30

Q: With B3 as the molecule, how does the “pI (known)” value read?
A: 7.80 and 8.00 and 8.20

Q: With B4 as the molecule, how does the “pI (known)” value read?
A: 7.00
